Assay results taken from patent publication US20240400651A1 (VAL CHUM LIMITED PARTNERSHIP, published 2024).

Molecular target: SARS-CoV-2 receptor binding domain (RBD), residues 319-591 of SARS-CoV-2 S (SARS-CoV-2, UniProt P0DTC2 319-591)
Test: BLI, mAb on anti-human Fc probe (FIGS. 5A-E)

B1: Mab #1 (antibody, V domains shown)
VH: EVQLVESGPEVKKPGTSVKVPCKASGFTFTSSAVQWVRQARGQRLEWIGWIVVGSGNTNYAQKFQERVTITRDMSTSTAYMELSSLRSEDTAVYYCAAPSCSGGRCYDGFDIWGQGTMVTVSS
VL: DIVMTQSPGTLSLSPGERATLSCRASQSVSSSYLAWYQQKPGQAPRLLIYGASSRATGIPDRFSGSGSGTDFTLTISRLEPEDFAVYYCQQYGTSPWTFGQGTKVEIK
binding result: binds
